This note sets out measurements from article PMC3102659.

Assay [1] concerns the target human blood coagulation factor X (FX) (human).
Assay [2] concerns the target TTAT mutant fiber of HAdV5 (KKTK motif of the shaft mutated) (human adenovirus serotype 5) (UniProt P11818). Kind of assay: not stated; data not shown: folding of TTAT mutant fibers as trimers.
Assay [3] concerns the target immobilized HS (hypersulfated heparin), bridged by FX (m1). Kind of assay: SPR. As to conditions: virion + FX at 8 µg/ml (FXmax); HS immobilized on chip; read at end of injection (~285 s); parent: est. 2900; read off a plot.
Assay [4] addresses human blood coagulation factor X (FX) (human). This is another data set of the same source.
Assay [5] has the same target. Kind of assay: SPR; biotinylated hypersulfated heparin (HS) on a streptavidin CM4 chip, BIAcore3000; hexon or virions injected alone or mixed with FX or FXGL; read-out is the FX-bridged binding to HS; HBS (10 mM HEPES, 150 mM NaCl, pH 7.4) with 3 mM CaCl2, 5 µl/min.

For the substance “HAdV5F^TTAT virion (HAdV5 vector mutated in the KKTK motif of the fiber shaft) (from UniProt P04133 1-952; P12538 1-571; P11818 1-581) (complex)”, in assay [1], the enhancement of transduction efficiency of CHO-K1 cells, MOI 2,500, increasing doses of FX up to FXmax (8 µg/ml) was determined as 65 fold.
Substance “TTAT mutant fiber of HAdV5 (KKTK motif of the shaft mutated) (from UniProt P11818 1-581) (natural protein)” displayed a stoichiometry N in assay [2] of 3.
Consider “HAdV5wt virion (replication-deficient HAdV5 vector with nonmodified capsid) (from UniProt P04133;P12538;P11818) fiber:K91T; fiber:K92T; fiber:T93A; fiber:K94T”, for which the response in assay [3] came out at 2400 RU.
Substance “HAdV5F35 virion (serotype 35 fiber-pseudotyped HAdV5 vector) (from UniProt P04133 1-952; P12538 1-571) (complex)” gave a cell-bound virions on CHO-K1 cells (qPCR of viral genomes), MOI 5,000, 1 h at 4°C, increase with FX 8 µg/ml over no FX in assay [4] of 10 fold. For the same substance, the copies of FX per virion at maximum FX-mediated binding to HS (copies of FX per virion) in assay [5] amounted to 480.
As to “HAdV5wt virion (replication-deficient HAdV5 vector with nonmodified capsid) (from UniProt P04133 1-952; P12538 1-571; P11818 1-581) (complex)”, the cell-bound virions on CHO-K1 cells (qPCR of viral genomes), MOI 5,000, 1 h at 4°C, increase with FX 8 µg/ml over no FX in assay [4] was 5 to 6 fold.
For the substance “HAdV5wt virion (replication-deficient HAdV5 vector with nonmodified capsid) (from UniProt P04133;P12538;P11818) penton base:R340E”, in assay [3], the response amounted to 2500 RU.
